According to US20130259876A1 (Regeneron, published 2013):
Changes are numbered by the printed parent chain.

B1: H4H2560P (antibody, V domains shown)
VH: QVQLVQSGAEVKKPGASVKVSCKASGYTFTGYFIHWVRQAPGQGLEWVGWINPTSGGTNYAQKFQGRVTMTRDTSISTAYMEMNSLRSDDTAVYYCARKAGYTSTWFDYWGQGTTVTVSS
VL: DIVMTQSPDSLTVSLGERATINCKSSQSVLYSSKNKNYLAWYQQKPGQPPNLLVYWASTRESGVPDRFSGSGSGTDFTLTISSLQAEDVAVYYCQQYYSMITFGQGTRLEIK
B2: H4H2564S (antibody, V domains shown)
VH: EVQLVESGGGLVQPGGSLRLSCAASGITFSSFVMNWVRQAPGKGLEWVSVISGSGGSTYYADSVKGRFTISRDNSKNTLYLQMNSLRAEDTAVYYCAKGGLRWFPFDYWGQGTLVTVSS
VL: not shown
B3: H4H2490N2 (antibody, V domains shown)
VH: QVQLVQSGADVKWPGASVKVSCRASGYTFTGYYMHWVRQAPGQGLEWMGWINPNNGGTNYAQKFQGRVTMTRDTSITTVYMELSSLISDDTAVYYCARGEDLELRNYYYYGMDVWGQGTSVTVSS
VL: DIQMTQSPSSLSASVGDRVTITCRASQSISSYLNWYQQKPGKAPKLLIYAASNLQSGVPSRFSGSGFGTDFTLTISSLQSEDFATYYCQQTYSTRTFGRGTKVEIK
B4: H4H2562S (antibody, V domains shown)
VH: EVQLVESGGGLVQPGGSLRLSCAASGFTFTNYAMTWVRQAPGKGLEWVSTISGTGVDITYYADSVKGRFTISRDNSKNTLYLQMNSLRAEDTAVYYCAKGGLRWFPFDYWGQGTTVTVSS
VL: not shown
B5: H4H2532P (antibody, V domains shown)
VH: QVQLVQSGTEVKKPGAAVRVSCKASGYTFTDYHMHWVRQAPGQGLEWMGWINPNSGGTNSAQKFQGRVTMTRDTSISTAYMELNGLRSDDTAVYYCARKAGYTSSWFDYWGQGTTVTVSS
VL: not shown
B6: H4H2538P (antibody, V domains shown)
VH: B5 VH with T9A, A17S, R19K, H33Y, M48I, T58S, S60F, N84S, G85R, T115L
VL: B1 VL with T12A, S33F, K34N, A40S, N51K, V54I, V89A
B7: H4H2559P (antibody, V domains shown)
VH: B1 VH with G31D, I34L, T54N, Y60F, E82D, M83L, N84S, S85R, T105S, T115L
VL: B1 VL with T12A, V29I, S33F, K34N, P46I, N51M, V54I, S83R, M100S
B8: H4H2555P (antibody, V domains shown)
VH: B5 VH with T9A, R19K, Y102F, Y109H
VL: not shown
B9: H4H2477N2 (antibody, V domains shown)
VH: QVQLQQWGAGLLKPSETLSLTCAVYGGSFSDYYWSWIRQPPGKGLEWIGEINHRGNTNYNPSLKSRVTISVDTSKNQFSLKLRSVTAADMAVYYCARIQLWLRGYDYYGMDVWGQGTTVTVSS
VL: DIQMTQSPSSLSASVGDRVTITCRASQGIRNDLGWYQQKPGKAPKRLIYAASSLQGGVPSRFSGSGSGTEFSLTISSLQPEDFASYYCLQHNTYPWTFGQGTKVEIK
B10: H4H2526P (antibody, V domains shown)
VH: QVQLVESGGGVVQPGRSLRLSCAASGFTFSRFGMDWVRQAPGKGLEWVAVISYDGKNKLYADSVKGRFTISRDNSKNTLYMQMNSLRAEDTAVYYCAKEGDNWNFVGDSWGQGTLVTVSS
VL: DIQMTQSPSSVSASVGDRVTITCRASQDISARLAWYQQKPGKAPKLLIYAASSLQSGVPSRFSGSGSGTDFTLTISSLEPEDFATYYCQQADSFPYTLGQGTKLEIK
B11: H4H2528P (antibody, V domains shown)
VH: B10 VH with M81L
VL: B10 VL with D28G, D70Y, S77N, E79Q, D92N
B12: H4H2542P (antibody, V domains shown)
VH: EVQLVESGGGLVQPGRSLRLSCAASGFTFDDYAMHWVRQGPGKGLEWVSGISWNGRTMDHADSVKGRFTISRDNAKNSLYLQMNSLRNDDTGVYFCAKEGIPVAGTYFHFYGMDVWGQGTTVTVSS
VL: EIVMTQSPATLSVSPGERVTLSCRASQSIGNYLAWYQQKPGQAPRLLIYGTSTRATGIPARFSGSGSGTEFTLTFSSLQSEDFAVYYCQQYNHWPLTFGGGTKVEIK
B13: H4H2534S (antibody, V domains shown)
VH: EVQLVESGPGLVKPAQTLSLTCTVSGGSINSGGNYWSWIRQHPGKGLEWIGYIYYSGNTYYNPSLKSRVTISVDMSKNQFSLKLRSVTAADTAVYFCARDPRGITGTHHFDCWGQGTLVTVSS
VL: EIVLTQSPGTLSLSPGERATLSCRTSQSVSSRYLAWYQQKPGQAPRLLIYDASSRATGIPDRFSGSGSGTDFTLTISRLEPEDFAVYYCQQFGPSLFTFGPGTKVDIK
B14: H4H2490N (antibody, V domains shown)
VH: B3 VH
VL: B3 VL with K106N
B15: H4H2477N (antibody, V domains shown)
VH: B9 VH with R54S
VL: B9 VL
B16: H4H2499N (antibody, V domains shown)
VH: QVQLVESGGGLVKPGGSLRLSCAASGFTFSDYYMSWIRQAPGKGLEWVSYISTSGSTIYYPDSVKGRFTISRDNAKNSLNLQMNSLRAEDTAVYYCLLHYYYGMDVWGQGTTVTVSS
VL: EIVLTQSPATLSLSPGERAPLSCRASQSVSSYLAWYQQKPGQPPRLLIYDASNRATGIPARFSGSGSGTDFTLTISSLEPEDFAVYYCQQRSNWPWTFGQGTKVEIK

target: T1, scHLA-B27-mmH (engineered HLA-B*27 ectodomain in-line fusion protein) (human (HLA-B*2705, beta-2 …)); test: SPR (Biacore), mAb captured, 25 C, PBS pH 7.2
T1 construct: also called soluble HLA-B*27 fusion protein

In order of rising Kd:
1. B6  0.37 nM
2. B7  0.434 nM
3. B5  0.457 nM
4. B8  0.491 nM
5. B10  0.76 nM
6. B1  1.25 nM
7. B13  2.13 nM
8. B11  2.71 nM
9. B2  8.84 nM
10. B4  30.5 nM
11. B9  44 nM
12. B12  52.1 nM
13. B3  239 nM

In order of rising t1/2:
1. B3  2 min
2. B12  2 min
3. B4  4 min
4. B1  16 min
5. B13  16 min
6. B2  20 min
7. B9  20 min
8. B8  47 min
9. B5  52 min
10. B7  65 min
11. B6  69 min
12. B11  151 min
13. B10  348 min

target: T1, scHLA-B27-mmH (engineered HLA-B*27 …); test: SPR (Biacore), 25 C, PBS pH 5.75

In order of falling Kd:
1. B12  488 nM
2. B3  237 nM
3. B9  160 nM
4. B4  95 nM
5. B2  74.8 nM
6. B13  53.4 nM
7. B1  7.7 nM
8. B11  2.74 nM
9. B8  0.855 nM
10. B10  0.739 nM
11. B5  0.717 nM
12. B6  0.641 nM

target: T1, scHLA-B27-mmH (engineered HLA-B*27 …); test: SPR (Biacore), 25 C, PBS pH 7.2

In order of falling Kd:
1. B3  239 nM
2. B12  52.1 nM
3. B9  44 nM
4. B4  30.5 nM
5. B2  8.84 nM
6. B11  2.71 nM
7. B13  2.13 nM
8. B1  1.25 nM
9. B10  0.76 nM
10. B8  0.491 nM
11. B5  0.457 nM
12. B7  0.434 nM
13. B6  0.37 nM

target: T1, scHLA-B27-mmH (engineered HLA-B*27 …); test: SPR (Biacore), mAb captured, 25 C, HBST pH 7.4

In order of rising Kd:
1. B5  0.452 nM
2. B8  0.521 nM
3. B6  0.604 nM
4. B7  0.895 nM
5. B1  1.47 nM
6. B10  2.08 nM
7. B2  3.57 nM
8. B13  5.18 nM
9. B11  6 nM
10. B14  9.97 nM
11. B4  10 nM
12. B9  16.9 nM
13. B16  21.3 nM
14. B12  58 nM
15. B3  259 nM

In order of falling t1/2:
1. B10  96 min
2. B11  77 min
3. B14  33 min
4. B5  21 min
5. B6  20 min
6. B2  19 min
7. B7  19 min
8. B8  18 min
9. B9  11 min
10. B16  7 min
11. B1  6 min
12. B13  6 min
13. B4  5 min
14. B12  2 min
15. B3  1 min

B15: no binding.

target: T1, scHLA-B27-mmH (engineered HLA-B*27 …); test: SPR (Biacore), mAb captured, 37 C, HBST pH 7.4

In order of falling Kd:
1. B3  360 nM
2. B12  170 nM
3. B9  47 nM
4. B16  28 nM
5. B11  20.4 nM
6. B13  8.7 nM
7. B4  7.63 nM
8. B2  7.17 nM
9. B10  3.91 nM
10. B1  1.96 nM
11. B7  1.18 nM
12. B6  1.13 nM
13. B8  1.02 nM
14. B5  0.837 nM

In order of rising t1/2:
1. B3  1 min
2. B12  2 min
3. B9  3 min
4. B13  3 min
5. B1  4 min
6. B4  4 min
7. B16  4 min
8. B8  7 min
9. B6  8 min
10. B7  8 min
11. B2  9 min
12. B5  9 min
13. B11  17 min
14. B10  37 min

target: T1, scHLA-B27-mmH (engineered HLA-B*27 …); test: SPR (Biacore), mAb captured, 25 C, PBS pH 5.75

In order of falling Kd:
1. B12  488 nM
2. B3  237 nM
3. B9  160 nM
4. B4  95 nM
5. B2  74.8 nM
6. B13  53.4 nM
7. B1  7.7 nM
8. B11  2.74 nM
9. B8  0.855 nM
10. B10  0.739 nM
11. B5  0.717 nM
12. B6  0.641 nM

In order of falling t1/2:
1. B10  301 min
2. B11  135 min
3. B6  44 min
4. B7  43 min
5. B5  36 min
6. B8  31 min
7. B1  6 min
8. B9  5 min
9. B13  5 min
10. B2  3 min
11. B3  2 min
12. B4  2 min
13. B12  1 min
